Assay results: publication PMC10415184, “A placental model of SARS-CoV-2 infection reveals ACE2-dependent susceptibility and differentiation impairment in syncytiotrophoblasts” (Nature Cell Biology, 2023)
Positions count from the first letter of the chain named.

B1: WCSL IgG1 (sheet row 16) (antibody, V domains shown)
VH: QITLKESGPTLVKPTQTLTLTCTFSGFSLSTSGVGVGWIRQPPGKALEWLALIYWDDDKRYSPSLKSRLTITRDTSKNLVVLTMINMDPVDTATYYCAHSHSTTWGAFDYWGQGTLVTVSS
VL: DIVMTQSPDSLAVSLGERATINCKSSRSVLYTYNNKDDVAWYQQKPGQPPKLLIYWASTRESGVPDRFSGSGSGTDFTLTISSLQAEDVAVYYCQQYYSAPLTFGGGPRWRSN
B2: WCSL IgG1 (sheet row 18) (antibody, V domains shown)
VH: EVQLVESGGGVVQPGRSLRLSCAASGFTFSSYGMHWVRQAPGKGLEWVSYIYPSGGGAYYADSVQGRFTVSRDNAKNSVYLQMNSLRVEDTAVYYCTRDFWSAPIPMWGQGTLVTVSS
VL: DIVMTQSPVSLPVTPGEPASISCRSSQSLLHSNGHNYLNWYLQKPGQSPHLLIYLGSNRASGVPDRFSGSGSGTDFTLNISRVEAEDVGVYYCMQALQTPWTFGQGTKVEIK
B3: WCSL IgG1 (sheet row 13) (antibody, V domains shown)
VH: EVQLVESGGGLVKPGGSLRLSCAASGFTFSSYSMNWVRQAPGKGLEWVSSISSSSSYIYYADSVKGRFTISRDNAKNSLYLQMNSLRAEDTAVYYCARATTVVTPGYFQHWGQGTLVTVSS
VL: EIVLTQSPATLSLSPGQRATLSCRASQSVSSSLAWYQQKPGQAPRLLIYDASDRATDIPARFSGSGSGTDFTLTISSLEPEDFAVYYCQQRTNWPPLTFGGGTKVEIK
B4: WCSL IgG1 (sheet row 10) (antibody, V domains shown)
VH: EVQLVESGGGLVKPGGSLRLSCAASGFTFSSYSMNWVRQAPGKGLEWVSSISSSSGYIYYSDSLKGRFTISRDNAKNSLYLQMNSLTAEDTAVYYCAREGHIASRGWGWFDSWGQGTLVTVSS
VL: DIVMTQSPVSLAVTPGESASISCRSSQSLLHRNGYNYVDWYLQKPGQSPQLLIYLGSTRASGVPDRFSGSGSGTDFSLQITRVEAEDVGVYYCMQPLEIPLTFGGGTKLEIK
B5: WCSL IgG1 (sheet row 8) (antibody, V domains shown)
VH: QLQLQESGPGLVKPSETLSLTCTVSGGSISSSSYYWGWIRQPPGKGLEWIGSIYYSGSTYYNPSLKSRVTISVDTSKNQFSLKLSSVTAADTAVYYCASSPRNWGSPRFAFDIWGQGTMVTVSS
VL: QSVLTQPPSVSGAPGQRVTISCTGTTSNIGAGYDVHWYQQLPGTAPKLLIFGNTNRPSGVPERFSASRSGTSASLAITGLQTTDEADYYCQSYDNSLSGSRVFGGGTKLTVL
B6: WCSL IgG1 (sheet row 12) (antibody, V domains shown)
VH: EVQLLESGGGLVQPGGSLRLSCAASGFTFSSYWMHWVRQAPGKGLEWVSAISGSGGSTYYADSVKGRFTISRDNSKNTLYLQMNSLRAEDTAVYYCARDTPLYYDFWSGDAFDIWGQGTMVTVSS
VL: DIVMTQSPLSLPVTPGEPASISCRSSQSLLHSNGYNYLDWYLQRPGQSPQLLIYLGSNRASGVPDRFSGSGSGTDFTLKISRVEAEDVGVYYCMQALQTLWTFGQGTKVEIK
B7: WCSL IgG1 (sheet row 4) (antibody, V domains shown)
VH: EVQLLESGGGLVQPGGSLRLSCAASGFTFRNYAMSWVRQAPGKGLEWVSAISGSGSGTYYADSVKGRFTISRDNSKNTLYLQMNSLRAEDTAVYYCAKEGARIHWGQGTLVTVSS
VL: not shown
B8: WCSL IgG1 (sheet row 9) (antibody, V domains shown)
VH: B7 VH with L5V
VL: B2 VL with V9L, P12S, H35N, L38F, N39D, S48A, H50Q, N79K
B9: WCSL IgG1 (sheet row 6) (antibody, V domains shown)
VH: QVQLVESGGGLIQPGGSLRLSCAASGFLVSSKYMSWVRQAPGKGLEWVSSIYSGGDTYYADSVKGRFTISRDNSKNTLSLQMHSLKADDTAVYYCARGATGYSDSWYENWGQGTLVTVSS
VL: DIVMTQSPLSLPVTPGEPASISCRPSQSLLHSNGNNYLDWYLQKPGQSPQLLIYLGSNRASGVPDRFSGSGSGTDFTLRISSVEAEDVGVYYCMQALQNPLTFGQGTRLEIK
B10: WCSL IgG1 (sheet row 14) (antibody, V domains shown)
VH: VESGGGLVQPGGSLRLSCVASGAASGFTFSTESMNWVRQAPGKGLEWVSYIYPSGGGAYYADSVQGRFTVSRDNAKNSVYLQMNSLRVEDTAVYYCVRHQYGDYPSWGQGTPVTVSS
VL: B9 VL with P12S, P25S, N35F, L38F, R79K, S82R, A96G, N99I, L101Y, R108K
B11: WCSL IgG1 (sheet row 19) (antibody, V domains shown)
VH: EVQLVESGGGVVQPGRSLRLSCAASGFTFSNYAMSWVRQAPGKGLEWVSGISGSGGSTYYADSVKGRFTISRDNSKNTLYLQMNSLRAEDTAVYYCARDRGYSYAAFQHWGQGTLVTVSS
VL: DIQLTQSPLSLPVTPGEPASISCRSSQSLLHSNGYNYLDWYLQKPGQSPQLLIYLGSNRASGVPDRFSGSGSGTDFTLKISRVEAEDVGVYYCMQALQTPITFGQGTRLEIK

These binders were tested against recombinant human ACE2 (Homo sapiens, UniProt Q9BYF1).
Chain of recombinant human ACE2 (Q9BYF1 18-805): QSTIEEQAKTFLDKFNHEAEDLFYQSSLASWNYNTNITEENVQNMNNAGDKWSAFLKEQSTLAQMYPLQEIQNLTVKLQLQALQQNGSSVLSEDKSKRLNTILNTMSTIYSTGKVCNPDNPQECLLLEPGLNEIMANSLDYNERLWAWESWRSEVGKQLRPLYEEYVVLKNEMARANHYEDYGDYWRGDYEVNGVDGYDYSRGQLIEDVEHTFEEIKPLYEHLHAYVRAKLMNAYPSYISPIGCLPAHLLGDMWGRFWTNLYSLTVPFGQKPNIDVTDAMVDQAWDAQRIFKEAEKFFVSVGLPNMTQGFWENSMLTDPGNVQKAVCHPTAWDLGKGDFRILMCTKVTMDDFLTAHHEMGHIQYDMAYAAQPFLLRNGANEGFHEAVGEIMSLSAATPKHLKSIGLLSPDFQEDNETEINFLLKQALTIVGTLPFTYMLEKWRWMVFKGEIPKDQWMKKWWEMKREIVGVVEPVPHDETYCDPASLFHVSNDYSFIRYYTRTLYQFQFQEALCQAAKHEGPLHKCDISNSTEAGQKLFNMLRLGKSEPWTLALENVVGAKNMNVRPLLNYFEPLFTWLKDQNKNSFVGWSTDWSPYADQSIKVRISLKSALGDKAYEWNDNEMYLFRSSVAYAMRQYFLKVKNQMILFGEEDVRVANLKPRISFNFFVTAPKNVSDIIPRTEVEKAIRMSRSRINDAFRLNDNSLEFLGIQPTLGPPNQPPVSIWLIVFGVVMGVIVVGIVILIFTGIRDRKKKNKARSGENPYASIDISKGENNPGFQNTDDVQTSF
B1: binds. B2: binds. B3: binds. B4: binds. B5: binds. B6: binds. B7: binds. B8: binds. B9: binds. B10: binds. B11: binds.
